Laboratory results as given in PMC10991935.

Tested on: PsPIWI-RE (Pseudomonas stutzeri DSM 4166)
Experiment: fluorescence polarization
Conditions: FP: 20 mM Tris-HCl pH 7.5, 250 mM NaCl, 5 mM MgCl2, 5 nM oligo, 37 C, 30 min, EMSA: 20 mM Tris-HCl pH 8.0, 150 mM NaCl, 2 mM DTT, 5 mM MgCl2, 1 uM oligo, 1-3 uM

In the case of “CGAGGUAGUAGGUUGUAUAGU [5'OH-RNA (5'C) 21-nt guide]”, the Kd is reported as 152 nM.

For “UGAGGUAGUAGGUUGUAUAGU [5'P-RNA (5'U) 21-nt guide]”, the Kd (5' phosphate) was 64.4 nM.

“TGAGGTAGTAGGTTGTATAGT [5'P-DNA (5'T) 21-nt guide]” was tested, and the Kd (5' phosphate) was 24.6 nM.

“UGAGGUAGUAGGUUGUAUAGU [5'OH-RNA (5'U) 21-nt guide]” gave a Kd of 86.5 nM.

“AGAGGUAGUAGGUUGUAUAGU [5'OH-RNA (5'A) 21-nt guide]” gave a Kd of 88.4 nM.

“GGAGGUAGUAGGUUGUAUAGU [5'OH-RNA (5'G) 21-nt guide]” was tested, and the Kd was 86.7 nM.

Sequence “TGAGGTAGTAGGTTGTATAGT [5'OH-DNA (5'T) 21-nt guide]” has a Kd of 19.7 nM.
